Experimental data taken from US20260055186A1 (REPERTOIRE IMMUNE MEDICINES, published 2026).

What was measured:
[1] = biological target: T1, human CD8 on human T cells (human, UniProt P01732 22-235); experiment: flow cytometry on human CD8+ T cells, titration
T1 construct: whole, on cells; the antibodies were raised against human CD8 alpha; also called CD8 on human CD8+ T cells; hCD8
Method: (§1) The 24 humanized 02A01-derived anti-CD8 antibodies (excluding 02A01-VK3(D30E/N35Q)) were screened for their ability to bind human CD8 by evaluating binding to CD8+ T cells. The non-humanized parent (“02-Parent”) and the non-humanized parent comprising a heavy chain M39L liability mutation (“02-Parent-VH-M39L”) were used as controls. […] Cells were washed with 1×phosphate buffered saline (PBS) containing 1 mg/mL bovine serum albumin (PBS/BSA) and then stained with a 1:100 dilution of DyLight650-conjugated anti-human IgG H+L polyclonal antibody (ThermoFisher cat. no. Sa5-10129) in PBS/BSA. Following a 20-30 min incubation at 4° C., the cells were washed once with PBS/BSA, and then resuspended in PBS/BSA for analysis on a FACSCelesta using Diva software (BD Biosciences). The resulting data were analyzed using FlowJo. Data were quantified and reported as Max fluorescence intensity (MFI) of human IgG-Fc. […] Complete replacement of the HCDR1 (antibodies comprising VH5) eliminated binding to the CD8+ T cells.
(§2) Binding to human CD8+ T cells was tested at 7 serial 5-fold dilutions of each tested humanized 02A01 variant (from 50 nM to 3.2 pM). The resulting data were analyzed using FlowJo.

[2] = biological target: T1, human CD8 on human T cells; experiment: flow cytometry on human CD8+ T cells, titration, apparent KD
Method: as §1, §2

[3] = biological target: T1, human CD8 on human T cells; experiment: cell-based or functional assay

T1 sequence (P01732 22-235): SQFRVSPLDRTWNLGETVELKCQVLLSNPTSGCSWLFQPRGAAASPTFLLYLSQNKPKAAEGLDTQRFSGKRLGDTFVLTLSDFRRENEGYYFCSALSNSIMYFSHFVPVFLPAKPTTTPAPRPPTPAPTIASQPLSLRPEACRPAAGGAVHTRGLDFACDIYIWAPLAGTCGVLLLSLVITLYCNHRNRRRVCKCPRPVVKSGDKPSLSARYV

| Binder | Fold Change to Parental Apparent KD [1] [fold] | Maximum CD8+ T cell Binding (MFI) [1] [MFI] | Kd [2] [pM] | EC50 of pSTAT4 signaling in human CD8+ T cells [3] [pM] |
| --- | --- | --- | --- | --- |
| humanized 02A01-VH2-VK3 (antibody, human IgG1, V domains shown, human IgG1 format; also called 02-VH2-VK3) VH: EVQLVQSGAEVKKPGATLKISCKASGYTFTDFTMHWVQQAPGKGLEWIGLVNPNNGGNIYNQNFKGRATLTVDTSTSTAYMELSSLRSEDTSVYYCGRVPLYTSHGMDYWGQGTLVTVSS VL: EIVLTQSPATLSLSPGERATISCRASESVDSYDINSMHWYQQKPGQAPRLLIYRASHLQSGIPARFSGSGSRTDFTLTISSLEPEDFATYYCQQSNEDPLTFGQGTKLEIK | 1.18 | 2880 | 67 | – |
| humanized 02A01-VH1-VK4 (antibody, human IgG1, V domains shown, human IgG1 format; also called 02-VH1-VK4) VH: EVQLVQSGPEVVKPGATLKISCKASGYTFTDFTMHWVKQAPGKSLEWIGLVNPNNGGNIYNQNFKGRATLTVDTSTSTAYMELSSLRSEDTSVYYCGRVPLYTSHGMDYWGQGTLVTVSS VL: EIVLTQSPATLSVSPGERATISCRASESVDSYDINSMHWYQQKPGQAPRLLIYDASNRATGIPARFSGSGSRTDFTLTISSVEPEDFATYYCQQSNEDPLTFGQGTKLEIK | 0.89 | 2050 | 51 | – |
| humanized 02A01-VH4-VK1 (antibody, human IgG1, V domains shown, human IgG1 format; also called 02-VH4-VK1) VH: EVQLVQSGAEVKKPGATVKISCKASGYTFTDFTMHWVQQAPGKGLEWIGLVNPNNGGNIYAEKFQGRATLTVDTSTSTAYMELSSLRSEDTAVYYCGRVPLYTSHGMDYWGQGTLVTVSS VL: EIVLTQSPATLSVSPGERATISCRASESVDSYDINSMHWYQQKPGQPPRLLIYRASHLQSGIPARFSGSGSRTDFTLTISSVEPEDFATYYCQQSNEDPLTFGQGTKLEIK | 0.86 | 2810 | 49 | – |
| humanized 02A01-VH4-VK4 (antibody, human IgG1, V domains shown, human IgG1 format; also called 02-VH4-VK4) VH: EVQLVQSGAEVKKPGATVKISCKASGYTFTDFTMHWVQQAPGKGLEWIGLVNPNNGGNIYAEKFQGRATLTVDTSTSTAYMELSSLRSEDTAVYYCGRVPLYTSHGMDYWGQGTLVTVSS VL: EIVLTQSPATLSVSPGERATISCRASESVDSYDINSMHWYQQKPGQAPRLLIYDASNRATGIPARFSGSGSRTDFTLTISSVEPEDFATYYCQQSNEDPLTFGQGTKLEIK | 1.04 | 1640 | 59 | – |
| humanized 02A01-VH2-VK4 (antibody, human IgG1, V domains shown, human IgG1 format; also called 02-VH2-VK4) VH: EVQLVQSGAEVKKPGATLKISCKASGYTFTDFTMHWVQQAPGKGLEWIGLVNPNNGGNIYNQNFKGRATLTVDTSTSTAYMELSSLRSEDTSVYYCGRVPLYTSHGMDYWGQGTLVTVSS VL: EIVLTQSPATLSVSPGERATISCRASESVDSYDINSMHWYQQKPGQAPRLLIYDASNRATGIPARFSGSGSRTDFTLTISSVEPEDFATYYCQQSNEDPLTFGQGTKLEIK | 0.89 | 2040 | 51 | – |
| humanized 02A01-VH6-VK4 (antibody, human IgG1, V domains shown, human IgG1 format; also called 02-VH6-VK4) VH: EVQLVQSGAEVKKPGATVKISCKASGYTFTDFTMHWVQQAPGKGLEWIGLVNPNNGGNIYAEKFQGRVTLTVDTSTSTAYMELSSLRSEDTAVYYCGRVPLYTSHGMDYWGQGTLVTVSS VL: EIVLTQSPATLSVSPGERATISCRASESVDSYDINSMHWYQQKPGQAPRLLIYDASNRATGIPARFSGSGSRTDFTLTISSVEPEDFATYYCQQSNEDPLTFGQGTKLEIK | 1.12 | 1690 | 64 | – |
| humanized 02A01-VH3-VK4 (antibody, human IgG1, V domains shown, human IgG1 format; also called 02-VH3-VK4) VH: EVQLVQSGAEVKKPGATLKISCKASGYTFTDFTMHWVQQAPGKGLEWIGLVNPNNGGNIYAEKFQGRATLTVDTSTSTAYMELSSLRSEDTSVYYCGRVPLYTSHGMDYWGQGTLVTVSS VL: EIVLTQSPATLSVSPGERATISCRASESVDSYDINSMHWYQQKPGQAPRLLIYDASNRATGIPARFSGSGSRTDFTLTISSVEPEDFATYYCQQSNEDPLTFGQGTKLEIK | 1.16 | 1560 | 66 | – |
| 03A01-IgG-IL12 (HC) (other) VH: DVQFQESGPGLVKPSQSLSLTCTVTGYSITSDFAWNWIRQFPGNELEWMGYISYSGDTNYNPSLRSRISITRDTSKNQFFLQLDSVTTEDTATYYCTIRGYYTDSAFVFWGQGTLVTVSA VL: DIQMTQSSSYLSVSLGGRVTITCKASDHINNWLAWYQQKPGNAPRLLISGATSLETGVPSRFTGSGSGLDYTLSITSLQTEDVATYYCQQYWNSPFTFGSGTKLEIK | – | – | – | 15.7 |
| 03A01-Fab-Fc-IL12 (LC) (other) VH: DVQFQESGPGLVKPSQSLSLTCTVTGYSITSDFAWNWIRQFPGNELEWMGYISYSGDTNYNPSLRSRISITRDTSKNQFFLQLDSVTTEDTATYYCTIRGYYTDSAFVFWGQGTLVTVSA VL: DIQMTQSSSYLSVSLGGRVTITCKASDHINNWLAWYQQKPGNAPRLLISGATSLETGVPSRFTGSGSGLDYTLSITSLQTEDVATYYCQQYWNSPFTFGSGTKLEIK | – | – | – | 13.4 |
| 03A01-Fab-IL12 (LC) (other) VH: DVQFQESGPGLVKPSQSLSLTCTVTGYSITSDFAWNWIRQFPGNELEWMGYISYSGDTNYNPSLRSRISITRDTSKNQFFLQLDSVTTEDTATYYCTIRGYYTDSAFVFWGQGTLVTVSA VL: DIQMTQSSSYLSVSLGGRVTITCKASDHINNWLAWYQQKPGNAPRLLISGATSLETGVPSRFTGSGSGLDYTLSITSLQTEDVATYYCQQYWNSPFTFGSGTKLEIK | – | – | – | 11.1 |
| 02A01-IgG-IL12 (HC) (other) VH: EVQLQQSGPELVKPGASLKISCKASGYTFTDFTMHWVKQSHGKSLEWIGLVNPNNGGNIYNQNFKGKATLTVDTSSSTAYMELRSLTSEDSSVYYCGRVPLYTSHGMDYWGQGTSVTVSS VL: DIVLTQSPAFLAVSLGQRATISCRASESVDSYDINSMHWYQQKPGQPPKLLIYRASHLQSGIPARFSGSGSRTDFTLTINFVEADDVATYYCQQSNEDPLTFGAGTKLELK | – | – | – | 3.03 |
| 02A01-Fab-Fc-IL12 (LC) (other) VH: EVQLQQSGPELVKPGASLKISCKASGYTFTDFTMHWVKQSHGKSLEWIGLVNPNNGGNIYNQNFKGKATLTVDTSSSTAYMELRSLTSEDSSVYYCGRVPLYTSHGMDYWGQGTSVTVSS VL: DIVLTQSPAFLAVSLGQRATISCRASESVDSYDINSMHWYQQKPGQPPKLLIYRASHLQSGIPARFSGSGSRTDFTLTINFVEADDVATYYCQQSNEDPLTFGAGTKLELK | – | – | – | 2.11 |
| 02A01-Fab-IL12 (LC) (other) VH: EVQLQQSGPELVKPGASLKISCKASGYTFTDFTMHWVKQSHGKSLEWIGLVNPNNGGNIYNQNFKGKATLTVDTSSSTAYMELRSLTSEDSSVYYCGRVPLYTSHGMDYWGQGTSVTVSS VL: DIVLTQSPAFLAVSLGQRATISCRASESVDSYDINSMHWYQQKPGQPPKLLIYRASHLQSGIPARFSGSGSRTDFTLTINFVEADDVATYYCQQSNEDPLTFGAGTKLELK | – | – | – | 1.74 |
